For three molecules, Kd results are on record in article PMC6411926, “Engagement of DNA and H3K27me3 by the CBX8 chromodomain drives chromatin association” (Nucleic Acids Research, 2018).

The target of data set [1] is histone H3K27me3 peptide (Homo sapiens) (UniProt P68431). The note with it: cited from earlier work.
For data set [2], the target named is T1, CBX8 chromodomain (residues 8-61) (UniProt Q9HC52 8-61).
T1 construct: CBX8 chromodomain, residues 8-61; Uniformly 15N-labelled for the NMR titrations; The methods name two chromodomain constructs (Addgene 62514 and GST-CBX8 8-61 in pGSTag); the purification that is described is that of the GST fusion cleaved with TEV; also called CD; CBX8 CD; source: E. coli BL21 (DE3), purified (glutathione agarose, TEV cleavage, cation exchange, Superdex 75)
T1 sequence (looked up): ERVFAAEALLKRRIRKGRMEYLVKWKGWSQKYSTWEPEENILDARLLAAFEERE
In words: NMR titration; 1H-15N HSQC; histone peptide added to 15N-CD pre-bound to an 11 bp DNA (CD:DNA 1:1). The note with it: both partners purified.

In data set [3] the target is T1, CBX8 chromodomain (residues 8-61). Briefly: NMR titration; 1H-15N HSQC of 0.05-0.10 mM 15N-CBX8 CD with increasing molar ratios of unlabelled histone peptide; 25 °C; 100 mM NaCl, 40 mM phosphate pH 6.8; CSPs fit to a single-site model with ligand depletion, global Kd as the average over perturbed resonances. As to conditions: both partners purified.
The target of data set [4] is T2, CBX8 chromodomain (CD) (UniProt Q9HC52 8-61).
T2 sequence: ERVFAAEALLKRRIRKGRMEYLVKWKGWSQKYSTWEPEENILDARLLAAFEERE
In words: NMR titration (1H-15N HSQC); authors' estimate (likely); saturation at ~1:1, curved CSPs; EMSA: 25 mM phosphate pH 6.8, 25 mM NaCl, 1 mM EDTA, 1 mM DTT, 15 min on ice, 6% gel in 0.4x TBE; NMR: 40 mM phosphate pH 6.8, 100 mM NaCl, 25 C. As to conditions: protein: recombinant; tags: GST removed by TEV; 15N-labelled for NMR; blunt.

Ends that are not written are not given here. trimethyl = trimethyl-lysine A value given as a limit tells only on which side of the number the result lay.

CBX8 chromodomain (from UniProt Q9HC52): the Kd in data set [1] is greater than 500 µM.

B1: H3K27me3 (23-34) histone peptide (peptide)
chain: KAARK(trimethyl)SAPATGG
For B1, the values for the Kd in data set [2] and in data set [3] were 200 µM and 700 µM, respectively.

B2: 11 bp DNA (dsDNA)
DNA 1: GCGTTTAAGCG
DNA 2: CGCTTAAACGC
As to B2, in data set [4], the Kd was less than 10 µM.

By Kd is commonly meant the constant that tells how readily two partners part at equilibrium.
